# According to publication PMC5552909, “The first description of a hormone‐sensitive lipase from a basidiomycete: Structural insights and biochemical characterization revealed Bjerkandera adusta BaEstB as a novel esterase” (MicrobiologyOpen, 2017):
# Key:
# [1] = target: Bjerkandera adusta BaEstB, Hormone-Sensitive Lipase (HSL) family esterase (Bjerkandera adusta); experiment: dynamic light scattering (DLS); purified BaEstB without substrate; 30°C; Malvern Zetasizer Nano ZSP; 12 scans of 10 s; hydrodynamic radius from the Stokes-Einstein equation assuming spherical geometry
# [2] = target: Bjerkandera adusta BaEstB, Hormone-Sensitive Lipase (HSL) family esterase (Bjerkandera adusta); experiment: dynamic light scattering (DLS); purified BaEstB in presence of the substrate 2-naphthyl acetate; same conditions, considering its optimum pH and temperature; 12 scans of 10 s
# [3] = substrate: CC(=O)Oc1ccc2ccccc2c1; experiment: isothermal titration calorimetry, single injection, Michaelis-Menten fit; format: biochemical, Bjerkandera adusta; conditions: 30°C in methods, results state optimum pH and temperature (pH 7.0; 45°C)
stoichiometry N [1],stoichiometry N [2],Molecule,Km [3],kcat [3]
2,2,"Bjerkandera adusta BaEstB, Hormone-Sensitive Lipase (HSL) family esterase (enzyme)",,
,,"BaEstB (Bjerkandera adusta) (protein, full-length ORF (969 nt, M1-E322) in pPICZalphaA with myc and poly-His tags; secreted from Pichia pastoris X-33; dimer by DLS; catalytic triad S163, D252, H285) MESIRLSNAAGTISNDILAQVTFANEAIYPLLEKRRAEIENVTRKTFRYGALPGSEMDVYYPSSTPSGKAPVLAFVHGGAYVHGSKTHPPPGDLIYKNVGAFYASQGFVTVIPDYRKLPGMKWPDAPSDIASALTFLVAHSSDVNASAPTAADVQNIFLVGHSAGGAIASDVLLAPGLLPANVRRSVRGLIVFGGMMHYRGLEYPIPPFVLPGYYGTDEDVRAHEPLGLLESASDEIVRGLPDVLMVLSEHDVAAMRAAVTDFRSALAERTGKDVPLLVAQGHNHISPHYALSSGEGEEWGHDVIRWMRAKLASGNGVPATE",7.68 ± 0.62 µM,5.31 × 10^3 ± 20 s^−1
